# Experimental data as given in patent publication US10808249B2, “Methods and compositions for weed control” (Monsanto Technology LLC, priority 2011, dated 2020).
# Test system: Glyphosate-sensitive Palmer amaranth (A. palmeri R-22) plants
# Assay: Palmer amaranth pre-treated with PDS trigger oligonucleotides, then norflurazon
# Format: in vivo, Amaranthus palmeri
# Conditions: mixture of oligonucleotides incl. SEQ ID NO: 2137 at 0.8 nmol, 0.5% Silwet L-77; norflurazon 675 g ai/ha 24 and 48 h later; compared with norflurazon alone
# Experimental: Glyphosate-sensitive Palmer amaranth (A. palmeri R-22) plants were grown in the greenhouse (30/20 C day/night T; 14 hour photoperiod) in 4 inch square pots containing Sun Gro® Redi-Earth and 3.5 kg/cubic meter Osmocote® 14-14-14 fertilizer. Palmer amaranth plants at 5 to 10 cm in height were pre-treated with a mixture of oligonucleotides one of which was a SEQ ID NO: 2137 at 0.8 nmol comprising at least one oligonucleotide targeting PDS coding or noncoding regions, formulated in 10 millimolar sodium phosphate buffer (pH 6.8) containing 2% ammonium sulfate and 0.5% Silwet L-77. Plants were treated manually by pipetting 10 μL of polynucleotide solution on four fully expanded mature leaves, for a total of 40 microliters of solution per plant. Twenty-four and forty-eight hours later, the plants were treated with norflurazon (Solicam®, Syngenta, Greensboro, N.C.) at 675 g ai/ha, crop oil concentrate (COC) at 1% is added to the herbicide treatments. Four replications of each treatment was conducted. Plant height is determined just before ssDNA treatment and at intervals upto twelve days after herbicide treatments to determine effect of the oligonucleotide and herbicide treatments.
molecule,measurement,value
"SEQ ID NO: 2137: ssDNA trigger oligonucleotide targeting PDS, one of a mixture applied to Palmer amaranth before norflurazon (nucleic acid, listed as Amaranthus palmeri) antisense: ACCGAUUCCUGCAGGAGAAACAUGGUUCUAAGAUGGCCUUCCUAGACGGAAACCCUCCAGAGAGGCUGUGCAUGCCUAUUGUUAAACACAUCGAGUCACUAGGUGGUGAAGUUAAACUUAACUCUCGUAUACAAAAGAUUCAGUUGGACCAGAGUGGAAGCGUGAAGAGUUUUUUGCUAAAUAACGGGAGG",injury to the plants (FIG. 1),more injury to the plants than the norflurazon alone
